How the values were obtained:
[1] = target: T1, Recombinant 6His-tagged cdc42 bound to GTPγS (UniProt P60953 1-191, limits assumed); test: fluorescence of the solvatochromic dye on CBD, comparison of three cysteine mutants (FIG. 15)
T1 construct: Pre-equilibrated with GTPγS; also called cdc42-GTPγS; not shown: 6His tag
Method: (§1) Analyses of the solvatochromic activation indicator—A solution of mero-CBD (300 nM) in assay buffer was mixed 1:1 (v/v) with solutions of cdc42 (concentration as indicated), pre-equilibrated with 10 mM GDP or GTPγS as described in Knaus, U. G., Heyworth, P. G., Kinsella, B. T., Cumutte, J. T., and Bokoch, G. M. (1992) J. Biol. Chem. 267, 23575-23582. Emission wavelength of 630 nm and excitation wavelength of 600 nm were used to acquire excitation and emission spectra, respectively. For nucleotide dependence, cdc42 (500 nM) was pre-incubated with varying concentrations of GTPγS (1 to 500 nM). Rac1 and RhoA GTPases were pre-equilibrated with GTP […]S in the same manner.

[2] = target: T2, Recombinant 6His-tagged RhoA pre-equilibrated with GTPγS (UniProt P61586 1-193, limits assumed); test: fluorescence of the solvatochromic dye on mero-CBD, in vitro
T2 construct: also called RhoA-GTPγS; not shown: 6His tag
Method: as §1
(§2) Fluorescence increase as a measure of CBD-cdc42 interaction—The functionality and specificity of mero-CBD was characterized by measuring fluorescence in the presence of saturating amounts of cdc42-GDP or cdc42-GTPγS. […] Negligible increase (<5%) was also observed in the presence of activated Rac1. No effect on the mero-CBD fluorescence was observed when RhoA-GTPγS was present. Furthermore, even in the presence of excess of activated Rac1 and RhoA, GDP- and GTPγS-bound forms of cdc42 were easily distinguished by CBD-A4C fluorescence (data not shown).

[3] = target: T1, Recombinant 6His-tagged cdc42 bound to …; test: fluorescence of mero-CBD with saturating amounts of cdc42-GTPγS
Method: as §1, §2

T1 sequence (P60953 whole entry): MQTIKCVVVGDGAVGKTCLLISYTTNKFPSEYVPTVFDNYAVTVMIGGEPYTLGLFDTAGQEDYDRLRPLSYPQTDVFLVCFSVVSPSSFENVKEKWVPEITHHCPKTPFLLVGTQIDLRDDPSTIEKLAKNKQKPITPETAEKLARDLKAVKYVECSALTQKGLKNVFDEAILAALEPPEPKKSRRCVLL
T2 sequence (P61586 whole entry): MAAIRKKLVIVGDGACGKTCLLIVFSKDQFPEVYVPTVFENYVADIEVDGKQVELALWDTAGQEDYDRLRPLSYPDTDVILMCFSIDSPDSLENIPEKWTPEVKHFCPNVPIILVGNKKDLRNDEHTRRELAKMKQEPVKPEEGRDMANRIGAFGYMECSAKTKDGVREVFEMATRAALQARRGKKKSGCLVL

B1: mero-CBD-F271C conjugate (Cdc42-binding fragment of human WASP, amino acids 201 to 321, F271C, C-terminal 6His fusion, labeled with the merocyanine dye of FIG. … (other)
chain: DIQNPDITSSRYRGLPAPGPSPADKKRSGKKKISKADIGAPSGFKHVSHVGWDPQNGFDVNNLDPDLRSLCSRAGISEAQLTDAETSKLIYDFIEDQGGLEAVRQEMRRQEPLPPPPPPSHHHHHH
modifications: chain 1 pos 71 (WASP 271): Cys carrying the thiol-reactive merocyanine dye of FIG. 11, written C
notes: Dye-to-protein ratio 0.8 to 1.2 for single-dye conjugates; also called CBD biosensor; CBD-mero
fold fluorescence change on binding [1]: ~3.5 fold | binding result [2]: no binding | fold increase in excitation and emission maxima [3]: ~3.5 fold

Reference: patent publication US20050287518A1 (Scripps Research, published 2005)
